In patent JP2007300927A (dated 2007):
Positions count from the first letter of the chain named. Names may count otherwise.

B1: M13B3 (antibody, V domains shown)
VH: EVHLVESGGGLVKPGGSLKLSCAASGFTFSNYAMSWVRQTPEKRLEWVAAINNNGDDTYYLDTVKDRFTISRDNAKNTLYLQMSSLRSEDTALYYCVRQGGAYWGQGTLVTVSA
VL: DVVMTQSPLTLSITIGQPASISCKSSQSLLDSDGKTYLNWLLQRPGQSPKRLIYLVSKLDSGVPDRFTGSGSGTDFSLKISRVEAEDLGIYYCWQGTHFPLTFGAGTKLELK
notes: Mouse hybridoma antibody
B2: M6B1 (antibody, V domains shown)
VH: EVQLVESGGDLVKPGGSLKLSCAASGFTFSSYAMSWVRQTPEKRLEWVAAINSNGGTTYYPDTMKDRFTISRDNAKNTLYLQMSSLRSEDSALYYCTRHNGGYENYGWFAYWGQGTLVTVSA
VL: DIQMTQSPSSLSASLGGKVTITCKASQDINKNIIWYQHKPGKGPRLLIWYTSTLQPGIPSRFSGSGSGRDYSFSISNLEPEDIATYYCLQYDNLPRTFGGGTKLEIK
notes: Mouse hybridoma antibody
B3: L9G11 (antibody, V domains shown)
VH: QVQLQQPGAELVKPGASVKLSCKASGYTFTSYWMHWVKQRPGQGLEWIGTIDPSDSETHYNLQFKDTATLTVDKSSSTAYMQLSSLTSEDSAVYYCIRGAFYSSYSYWAWFAYWGQGTLVTVSA
VL: DIVLTQSPTSLAVSLGQSVTISCRASESVEYYGTSLMQWYQQKPGQPPKLLIYGASNVESGVPARFSGSGSGTDFSLNIHPVEEDDIAMYFCQQSRKVPYTFGSGTKLEIK
notes: Mouse hybridoma antibody
B4: Asn33をAspに置換した改変抗体(N33D) (antibody, human IgG1, V domains shown)
VH: QVQLVQSGAEVKKPGASVKVSCKASGYTFTDYEMHWVRQAPGQGLEWMGALDPKTGDTAYSQKFKGRVTLTADKSTSTAYMELSSLTSEDTAVYYCTRFYSYTYWGQGTLVTVSS
VL: DVVMTQSPLSLPVTPGEPASISCRSSQSLVHSDGNTYLHWYLQKPGQSPQLLIYKVSNRFSGVPDRFSGSGSGTDFTLKISRVEAEDVGVYYCSQNTHVPPTFGQGTKLEIK
notes: Humanised GC33 H chain ver.k (HEFgγ1, human IgG1) with L chain ver.a N33D (HEFgκ, human κ), expressed transiently in COS7; culture supernatant used
B5: 改変抗体G34A (antibody, human IgG1, V domains shown)
VH: B4 VH
VL: B4 VL with D33N, G34A
notes: Humanised GC33 L chain ver.a variant; human IgG1/κ; COS7 culture supernatant
B6: 改変抗体G34D (antibody, human IgG1, V domains shown)
VH: B4 VH
VL: B4 VL with D33N, G34D
notes: As G34A: H chain ver.k by 'the method above'; human IgG1/κ; COS7 supernatant
B7: 改変抗体G34E (antibody, human IgG1, V domains shown)
VH: B4 VH
VL: B4 VL with D33N, G34E
notes: as for B6
B8: 改変抗体G34F (antibody, human IgG1, V domains shown)
VH: B4 VH
VL: B4 VL with D33N, G34F
notes: as for B6
B9: 改変抗体G34H (antibody, human IgG1, V domains shown)
VH: B4 VH
VL: B4 VL with D33N, G34H
notes: as for B6
B10: 改変抗体G34I (antibody, human IgG1, V domains shown)
VH: B4 VH
VL: B4 VL with D33N, G34I
notes: as for B6
B11: 改変抗体G34K (antibody, human IgG1, V domains shown)
VH: B4 VH
VL: B4 VL with D33N, G34K
notes: as for B6
B12: 改変抗体G34L (antibody, human IgG1, V domains shown)
VH: B4 VH
VL: B4 VL with D33N, G34L
notes: as for B6
B13: 改変抗体G34N (antibody, human IgG1, V domains shown)
VH: B4 VH
VL: B4 VL with D33N, G34N
notes: as for B6
B14: 改変抗体G34Q (antibody, human IgG1, V domains shown)
VH: B4 VH
VL: B4 VL with D33N, G34Q
notes: as for B6
B15: 改変抗体G34R (antibody, human IgG1, V domains shown)
VH: B4 VH
VL: B4 VL with D33N, G34R
notes: as for B6
B16: 改変抗体G34S (antibody, human IgG1, V domains shown)
VH: B4 VH
VL: B4 VL with D33N, G34S
notes: as for B6
B17: 改変抗体G34T (antibody, human IgG1, V domains shown)
VH: B4 VH
VL: B4 VL with D33N, G34T
notes: as for B6
B18: 改変抗体G34W (antibody, human IgG1, V domains shown)
VH: B4 VH
VL: B4 VL with D33N, G34W
notes: as for B6
B19: 改変抗体G34Y (antibody, human IgG1, V domains shown)
VH: B4 VH
VL: B4 VL with D33N, G34Y
notes: as for B6
B20: ヒト化GC33 H鎖ver.k / L鎖ver.a (antibody, human IgG1, V domains shown)
VH: B4 VH
VL: B4 VL with D33N
notes: Human IgG1 / κ constant regions; also called GC33 VH ver.k
B21: ヒト化GC33 H鎖ver.c / L鎖ver.a (antibody, human IgG1, V domains shown)
VH: B4 VH with Q6E, K74E, T87R
VL: B4 VL with D33N
notes: Human IgG1 / κ constant regions; also called GC33 VH ver.c
B22: ヒト化GC33 H鎖ver.f / L鎖ver.a (antibody, human IgG1, V domains shown)
VH: B4 VH with Q6E, T87R
VL: B4 VL with D33N
notes: Human IgG1 / κ constant regions; also called GC33 VH ver.f
B23: ヒト化GC33 H鎖ver.h / L鎖ver.a (antibody, human IgG1, V domains shown)
VH: B4 VH with Q6E
VL: B4 VL with D33N
notes: Human IgG1 / κ constant regions; also called GC33 VH ver.h
B24: ヒト化GC33 H鎖ver.i / L鎖ver.a (antibody, human IgG1, V domains shown)
VH: B4 VH with K74E, T87R
VL: B4 VL with D33N
notes: Human IgG1 / κ constant regions; also called GC33 VH ver.i
B25: ヒト化GC33 H鎖ver.j / L鎖ver.a (antibody, human IgG1, V domains shown)
VH: B4 VH with T87R
VL: B4 VL with D33N
notes: Human IgG1 / κ constant regions; also called GC33 VH ver.j
B26: ヒト化GC33(ver.a / ver.a) (antibody, V domains shown)
VH: B4 VH with Q6E, L70I, K74E, T87R, T97A
VL: B4 VL with D33N
notes: Human IgG1 / human κ constant regions (HEFgγ1, HEFgκ); also called GC33 VH ver.a / GC33 VL ver.a
B27: GC33 ver.a / mouse (antibody, human IgG1, V domains shown)
VH: B4 VH with Q6E, L70I, K74E, T87R, T97A
VL: B4 VL with S7T, T14S, P15L, E17D, P18Q, D33N, Q50K, V88L, Y92F, Q105S
notes: Humanised H chain variable region ver.a combined with the mouse GC33 L chain variable region; human IgG1 / κ constant regions; also called H鎖 ver.a / L鎖 マウスGC33

Each binder was assayed against T1, 可溶型GPC3コアタンパク質 (human, UniProt P51654 25-563) (assay: ELISA, purified antibody from 10 μg/mL in 3-fold steps on immobilised soluble GPC3 core protein).
T1 construct: also called 可溶型GPC3コア蛋白質; soluble GPC3 core protein; not shown: C-terminal His tag
T1 sequence (P51654 25-563 S495A/S509A): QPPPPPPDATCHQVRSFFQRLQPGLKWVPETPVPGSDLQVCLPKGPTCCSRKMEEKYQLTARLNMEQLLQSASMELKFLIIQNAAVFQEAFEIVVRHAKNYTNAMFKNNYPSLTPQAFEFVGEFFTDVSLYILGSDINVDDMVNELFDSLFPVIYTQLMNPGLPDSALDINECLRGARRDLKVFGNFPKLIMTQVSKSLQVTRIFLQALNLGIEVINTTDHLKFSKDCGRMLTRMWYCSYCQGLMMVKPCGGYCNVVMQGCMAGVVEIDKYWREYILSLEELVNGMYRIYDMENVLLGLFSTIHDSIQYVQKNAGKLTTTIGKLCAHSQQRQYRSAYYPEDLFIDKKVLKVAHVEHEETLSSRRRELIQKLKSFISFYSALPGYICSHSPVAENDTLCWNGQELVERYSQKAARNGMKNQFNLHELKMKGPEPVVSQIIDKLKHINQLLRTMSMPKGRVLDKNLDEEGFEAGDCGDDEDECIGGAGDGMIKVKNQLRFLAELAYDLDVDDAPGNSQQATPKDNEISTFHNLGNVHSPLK
B1: binds. B2: binds. B3: binds.

These binders were tested against T1, 可溶型GPC3コアタンパク質 (assay: ELISA on immobilised soluble GPC3 core protein, COS7 supernatant).
B4: no binding. B5: binds. B6: binds. B7: binds. B8: binds. B9: binds. B10: binds. B11: binds. B12: binds. B13: binds. B14: binds. B15: binds. B16: binds. B17: binds. B18: binds. B19: binds.

What follows are binders tested against T1, 可溶型GPC3コアタンパク質 (assay: ELISA on GPC3 (Fig. 15)).
B20: binds. B21: binds. B22: binds. B23: binds. B24: binds. B25: binds. B26: binds. B27: binds.
